Source: patent US10138280B2, “Polypeptides targeting glycosylated MUC2 proteins, methods of synthesis, their nucleic acids and uses thereof” (INSTITUT PASTEUR, priority 2011, dated 2018)
Blank lines part the entries; values can stand above or below the molecule they belong to. No end group written: not given here.

Tests used:
[1] = target: T1, human colonic mucus (Muc2) (Homo sapiens, UniProt Q02817); assay: Immunofluorescent staining of human mucus and fixed human colon samples; settings: human mucus extract collected on ex vivo tissues
T1 construct: Segments of human colon (ascending, descending and sigmoid colon) were obtained from fully informed patients undergoing surgery; from tissue; host or cells: healthy human colon segments (live explants, mucus collected from them, Carnoy- or formol-fixed sections)
Text: (§1) FIGS. 4A-4B. Cy5-MUB70 is specifically binding to the glycosylated moiety of Muc2 secreted in the colon mucus layer. (FIG. 4A) Immunodetection of Muc2, Muc5ac, Muc5b and Muc6 (dotblot analysis) on human mucus extracts eluted after a pulldown assay performed with biot-MUB70 on avidin conjugated beads (see Methods). Biotin is used as a negative control. Immunodetection of Muc2 (dotblot analysis) on deglycosylated mucus extracts eluted after a pulldown assay performed with biot-MUB70 on avidin conjugated beads. Non-deglycosylated mucus extract is used as a positive control. (FIG. 4B) Co-localization of Muc2 (green) and Cy5-MUB (blue) observed on fixed (Carnoy) human colon samples. Actin is stained in red (Phall.RRX). Observations are performed using a confocal microscope. Bars is 20 μm.
FIGS. 9A-9B. (FIG. 9A) Co-localization of Muc2 (green) and Cy5-MUB (blue) performed by immunofluorescent detection on human mucus extract collected on ex vivo tissues using an epifluorescent microscope. Bar is 50 μm. […]
For immunofluorescence assay mouse α-MUC2 pAbs (Santa Cruz sc-15334) was diluted 1:1000 and FITC-conjugated rabbit anti-mouse was diluted 1:2000. Host cells were detected with DAPI (nuclei, […]) or using Phalloidin-Rhodamine red X (RRX)-conjugated donkey anti-mouse antibodies (Jackson Immunoresearch Antibodies) as an actin marker (stained red); both were used at a final dilution of 1:1000. […]

[2] = target: T2, human colonic mucus and goblet cells (Homo sapiens, UniProt Q02817); assay: Fluorescent staining of healthy human colon, formol fixed, paraffin embedded samples; settings: fixed samples, 1 μg/mL
T2 construct: Segments of human colon (ascending, descending and sigmoid colon) were obtained from fully informed patients undergoing surgery; from tissue; host or cells: healthy human colon segments (live explants, mucus collected from them, Carnoy- or formol-fixed sections)
Method: FIG. 22. Schematic description of the Cy5-MUB40-1, Cy5-MUB40-2, Cy5-MUB40-3, Cy5-MUB40-4 peptides (SEQ ID NOS 62 to 65). Fluorescent staining of human colonic mucus was performed by the addition of 1 μg/mL of the corresponding Cy5-conjugated peptides with Phalloidin-RRX (1:100) on formol fixed, paraffin embedded samples. Image acquisition was performed using a fluorescent confocal microscope (see Methods).
FIG. 23 Comparative staining analysis of human colonic goblet cells using Cy5-MUB70 and Cy5-MUB40-1. Fluorescent staining of human colonic mucus was performed by the addition of 1 μg/mL of the corresponding Cy5-conjugated peptides with Phalloidin-RRX (1:100) on formol fixed, paraffin embedded samples. Image acquisition was performed using a fluorescent confocal microscope (see Methods).
FIGS. 24A-24B. Comparative human colonic mucus staining using MUB70-Cy5 on healthy tissues and mucinous carcinomas (Coic et al, JBC, 2012 (41)). Fluorescent staining of human colonic mucus was performed by the addition of 1 μg/mL of the corresponding Cy5-conjugated peptides with Phalloidin-RRX (1:100) on formol fixed, paraffin embedded samples. Image acquisition was performed using a fluorescent confocal microscope (see Methods).
As colonic mucinous carcinomas are characterized by abnormal overproduction of Muc2 in the colon mucosa (40), the inventors have hypothesized that Cy5-MUB70 could be used as a novel fluorescent marker for the diagnosis of this pathology. […] As shown previously on a healthy colon (FIG. 3B), the luminal mucus secreted fraction is detected by Cy5-MUB70 (FIG. 24A, top panel). […] This observation might be the consequence of a higher level of mucus compaction, resulting in a lower accessibility for MUB70 to bind Muc2. […] Cy5-MUB70 has been validated as a potent innovative diagnostic tool for colonic mucinous carcinoma detection and might be optimized with alternative markers (e.g. biotin) for practical clinical applications.

[3] = tested on: human neutrophil (PMN) granules; assay: Human neutrophil (PMN) granule staining; format: cell-based; settings: for PMN granule staining: PMN purified from human blood, fixed in 4% PFA, 1 μg/mL; for signal brightness of PMN granule staining: fixed PMN, compared among Cy5-MUB40 probes
Method: FIG. 14. Staining of individual neutrophiles (white blood cells) in human blood sample. Cy5-MUB70 was incubated on ethanol 100% fixed blood sample. […] (Details are provided on the Figure). […] In particular, granules staining is achieved.
FIG. 15. Staining of individual neutrophiles (white blood cells) purified from fresh human blood sample. Cy5-MUB70 was incubated on PFA 4% fixed neutrophiles (PFA treatment for 15 min, wash 3 times in PBS). Signal was detected as dots distributed in neutrophile cytoplasms. (Staining with Dapi 1:1000 and EB1C5 1:1000 in PBS+10% FCS+0.1% Saponin). […] In particular, granules staining is achieved.
FIG. 29. Identification of Muc2 in neutrophile granules using MUB70-Cy5. Human neutrophil (PMN) granule staining using Cy5-MUB70. PMN were purified from healthy donor blood samples and fixed in the presence of 4% PFA. Fluorescent staining of human colonic mucus was performed by the addition of 1 μg/mL of Cy5-MUB70 (Red) with Dapi (1:100) (Blue) and 1:200 anti-Muc2 antibody (Green). Image acquisition was performed using a fluorescent confocal microscope (see Methods).
FIG. 31. Identification of Muc2 in neutrophile granules. Human neutrophil (PMN) granule staining using Cy5-MUB40-1, Cy5-MUB40-2, Cy5-MUB40-3, Cy5-MUB40-4 peptides. Schematic description of the Cy5-conjugated peptides. PMN were purified from healthy donor blood samples and fixed in the presence of 4% PFA. Fluorescent staining of human colonic mucus was performed by the addition of 1 μg/mL of the Cy5-conjugated peptides (Green) with Dapi (1:100) (Blue) and Phalloidin-RRX (1:1000) (Red). Image acquisition was performed using a fluorescent confocal microscope (see Methods).
The invention has also proven to be useful for the monitoring of neutrophile degranulation events, in particular by using MUB70 and/or MUB40 polypeptides or polypeptides sharing identity with MUB70 and/or MUB40 polypeptides, or fragments thereof, for labelling neutrophile granule(s).

[4] = Analytical gel filtration for quaternary structure; format: physicochemical; settings: gel filtration at 0.1 and 1 mg/ml; phosphate buffer
Method: FIGS. 7A-7D. Biochemical properties of MUB70. (FIG. 7A) MUB70 total charge was calculated using Protein Calculator program (Scripps website). (FIG. 7B) Kytes and Doolittle hydropathy profile of MUB70 was generated using ExPASy bioinformatical tools. (FIG. 7C) Validation of biot-MUB70 purity by gel filtration chromatography on Superdex 200 5/150 GL column. (FIG. 7D) Partition coefficients (Kav) of the standard proteins (ferritin, 440 kDa; aldolase, 158 kDa; ovalbumin, 43 kDa; ribonuclease A, 13.7 kDa; aprotinin, 6.5 kDa) were calculated according to Kav=(Ve−V0)/(Vt−V0) (Ve, elution volume; V0, void volume; Vt, total volume of the gel bed) and plotted against the corresponding molecular masses. The molecular mass of biot-MUB70 calculated using the calibration curve equation: log(Mr)=3.12−3.1 Kav.
[…] Standard proteins from the gel filtration calibration kit (ferritin, aldolase, ovalbumin, ribonuclease A, aprotinin; GE Healthcare, Uppsala, Sweden) were used for calibration. As control biot-MUB70 was visualized on 10% SDS-PAGE gel stained by Coomassie.
The theoretical molecular weight (MW) of a biotinylated MUB70 (biot-MUB70) is 8.8 kDa. […] This observation was confirmed with the fluorescent Cy5-MUB70 compound (data not shown). […] The elution profile was recorded at 280 nm. […]

Muc2 = target: T3, Muc2 (Homo sapiens, UniProt Q02817); assay: Pulldown assay with dot blot immunodetection, Muc2; format: binding
T3 construct: human colonic mucus extracts (produced in vitro from differentiated HT-29 MTX cells, see Methods); endogenous in cells; host or cells: HT-29 MTX human colonic epithelial cells, differentiated (21 days)

Muc5ac = target: T4, Muc5ac (Homo sapiens, UniProt P98088); assay: Pulldown assay with dot blot immunodetection, Muc5ac; format: binding; settings: soluble human colonic mucus extract from HT-29 MTX; detected in the input
T4 construct: soluble human colonic mucus extracts were initially obtained from HT-29 MTX cell secretion product; endogenous in cells; host or cells: HT-29 MTX cells (secreted mucus, soluble fraction)
Text: as §1, with “μm. […]” for “μm.”
(§2) Soluble mucus components used in pulldown assays (input and output) were transferred to nitrocellulose membranes (Invitrogen), which were blocked in PBS/5% milk and further incubated with the primary antibodies diluted in PBS/1% milk/0.01% Tween20 (Sigma-Aldrich) overnight. […] Antibody binding was detected with chemiluminescence (ECL kit, GE Healthcare).

Muc5b = target: T5, Muc5b (Homo sapiens, UniProt Q9HC84); assay: Pulldown assay with dot blot immunodetection, Muc5b; format: binding; settings: soluble human colonic mucus extract from HT-29 MTX; detected in the input
T5 construct: soluble human colonic mucus extracts were initially obtained from HT-29 MTX cell secretion product; endogenous in cells; host or cells: HT-29 MTX cells (secreted mucus, soluble fraction)
Text: as §1, with “μm. […]” for “μm.”
as §2

Muc6 = target: T6, Muc6 (Homo sapiens, UniProt Q6W4X9); assay: Pulldown assay with dot blot immunodetection, Muc6; format: binding; settings: soluble human colonic mucus extract from HT-29 MTX; detected in the input
T6 construct: soluble human colonic mucus extracts were initially obtained from HT-29 MTX cell secretion product; endogenous in cells; host or cells: HT-29 MTX cells (secreted mucus, soluble fraction)
Text: as §1, with “μm. […]” for “μm.”
as §2

T6 sequence (Q6W4X9 23-2439): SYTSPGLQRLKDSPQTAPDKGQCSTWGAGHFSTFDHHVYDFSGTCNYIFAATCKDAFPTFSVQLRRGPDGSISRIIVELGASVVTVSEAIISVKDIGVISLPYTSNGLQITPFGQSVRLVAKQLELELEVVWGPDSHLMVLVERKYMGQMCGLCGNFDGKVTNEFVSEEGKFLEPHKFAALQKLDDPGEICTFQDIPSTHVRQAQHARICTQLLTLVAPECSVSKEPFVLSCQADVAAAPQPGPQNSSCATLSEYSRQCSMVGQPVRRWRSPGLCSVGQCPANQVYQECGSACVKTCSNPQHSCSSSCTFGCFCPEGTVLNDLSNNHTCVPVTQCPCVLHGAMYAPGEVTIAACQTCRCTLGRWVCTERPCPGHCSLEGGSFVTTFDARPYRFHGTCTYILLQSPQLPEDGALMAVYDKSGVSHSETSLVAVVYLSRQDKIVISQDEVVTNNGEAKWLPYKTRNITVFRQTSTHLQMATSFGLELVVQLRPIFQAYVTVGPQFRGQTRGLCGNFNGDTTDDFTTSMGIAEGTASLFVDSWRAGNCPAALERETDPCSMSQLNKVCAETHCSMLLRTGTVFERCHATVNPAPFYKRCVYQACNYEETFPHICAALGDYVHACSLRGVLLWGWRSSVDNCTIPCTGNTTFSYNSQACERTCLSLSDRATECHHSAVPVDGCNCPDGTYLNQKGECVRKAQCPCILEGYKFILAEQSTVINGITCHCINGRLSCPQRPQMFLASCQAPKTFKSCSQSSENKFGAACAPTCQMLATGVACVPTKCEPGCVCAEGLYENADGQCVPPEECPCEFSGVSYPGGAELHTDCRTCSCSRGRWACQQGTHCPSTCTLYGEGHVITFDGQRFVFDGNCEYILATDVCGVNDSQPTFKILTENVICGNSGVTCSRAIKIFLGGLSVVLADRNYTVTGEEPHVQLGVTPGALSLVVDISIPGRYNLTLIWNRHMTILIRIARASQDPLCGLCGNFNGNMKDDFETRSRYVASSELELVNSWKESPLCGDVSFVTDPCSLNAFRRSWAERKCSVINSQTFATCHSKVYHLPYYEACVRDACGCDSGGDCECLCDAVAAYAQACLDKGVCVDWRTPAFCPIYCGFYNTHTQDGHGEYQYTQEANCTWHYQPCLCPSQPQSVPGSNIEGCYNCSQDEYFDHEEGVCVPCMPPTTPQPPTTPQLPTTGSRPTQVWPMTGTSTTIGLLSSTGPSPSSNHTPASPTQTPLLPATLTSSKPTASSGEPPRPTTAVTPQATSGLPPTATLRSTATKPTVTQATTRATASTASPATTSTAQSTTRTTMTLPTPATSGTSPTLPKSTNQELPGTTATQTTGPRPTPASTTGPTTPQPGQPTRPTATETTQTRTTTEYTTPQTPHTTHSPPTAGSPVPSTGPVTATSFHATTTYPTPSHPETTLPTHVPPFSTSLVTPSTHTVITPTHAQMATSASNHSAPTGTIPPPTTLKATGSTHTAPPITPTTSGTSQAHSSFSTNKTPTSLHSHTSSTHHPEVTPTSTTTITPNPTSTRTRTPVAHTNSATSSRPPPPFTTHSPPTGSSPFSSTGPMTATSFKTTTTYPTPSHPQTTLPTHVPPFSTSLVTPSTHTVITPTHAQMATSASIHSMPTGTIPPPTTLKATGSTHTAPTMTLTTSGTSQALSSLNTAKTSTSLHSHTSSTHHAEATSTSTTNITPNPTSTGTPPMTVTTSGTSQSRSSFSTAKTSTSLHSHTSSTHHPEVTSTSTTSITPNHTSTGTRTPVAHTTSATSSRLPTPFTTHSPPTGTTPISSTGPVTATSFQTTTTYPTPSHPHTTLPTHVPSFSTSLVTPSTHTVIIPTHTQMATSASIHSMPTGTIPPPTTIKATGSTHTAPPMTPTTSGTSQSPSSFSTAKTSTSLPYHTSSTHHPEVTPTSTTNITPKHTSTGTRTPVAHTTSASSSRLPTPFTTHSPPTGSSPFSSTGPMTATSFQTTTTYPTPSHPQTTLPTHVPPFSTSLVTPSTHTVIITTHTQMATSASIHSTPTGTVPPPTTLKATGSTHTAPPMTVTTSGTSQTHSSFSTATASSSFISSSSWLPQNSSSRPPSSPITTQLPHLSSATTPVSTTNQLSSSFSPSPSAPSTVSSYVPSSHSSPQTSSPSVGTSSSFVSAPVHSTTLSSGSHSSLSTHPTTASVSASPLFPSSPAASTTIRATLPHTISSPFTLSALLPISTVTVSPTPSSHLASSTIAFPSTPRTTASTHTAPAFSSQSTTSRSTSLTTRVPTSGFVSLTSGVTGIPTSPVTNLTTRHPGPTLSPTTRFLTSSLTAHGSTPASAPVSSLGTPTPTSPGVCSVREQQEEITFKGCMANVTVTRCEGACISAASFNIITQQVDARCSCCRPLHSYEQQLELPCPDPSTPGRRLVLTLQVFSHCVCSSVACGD

Molecule: CCN1/C(=C/C=C/C=C/C2=[N+](CCCCCC(=O)O)c3ccc(S(=O)(=O)O)cc3C2(C)C)C(C)(C)c2cc(S(=O)(=O)[O-])ccc21 [Cy5, reference compound]
human mucus binding [1]: does not have the property to bind human mucus

human mucus binding ([2]; human colonic mucus): functional human mucus-binding peptide
Molecule: Cy5-MUB40-1: Cy5-conjugated MUB40-1 peptide with N-terminal cysteine (SEQ ID NO: 62) (C(Cy5)TAEGIKKFEGDGYELFKDNFPAGEKFDNDDTNDQFYTVIF; not fully specified)
goblet cells binding ([2]; human colonic goblet cells): possessing globlet-cells binding properties
PMN granule staining [3]: efficiently stained
signal brightness of PMN granule staining [3]: brighter signal

Molecule: Cy5-MUB40-2: Cy5-conjugated MUB40-2 peptide with N-terminal cysteine (SEQ ID NO: 63) (C(Cy5)GYTDETIPYSTAEGIKKFEGDGYELFKDNFPAGEKFDNDD; not fully specified)
PMN granule staining [3]: efficiently stained

Molecule: Cy5-MUB40-3: Cy5-conjugated MUB40-3 peptide with N-terminal cysteine (SEQ ID NO: 64) (C(Cy5)DQMLRQDDLDGYTDETIPYSTAEGIKKFEGDGYELFKDNF; not fully specified)
PMN granule staining [3]: efficiently stained

Molecule: Cy5-MUB40-4: Cy5-conjugated MUB40-4 peptide with N-terminal cysteine (SEQ ID NO: 65) (C(Cy5)VHVQYIDGETDQMLRQDDLDGYTDETIPYSTAEGIKKFEG; not fully specified)
PMN granule staining [3]: efficiently stained
signal brightness of PMN granule staining [3]: brighter signal

Muc2 interaction after chemical deglycosylation of mucus extract (Muc2; chemically deglycosylated mucus extract): abolished the interaction
Muc2 interaction after desulfatation of mucus extract (Muc2; desulfatation (glycosylsulfatase)): loss of this interaction
Muc2 in eluted fraction of pulldown (Muc2; soluble human colonic mucus extract from HT-29 MTX, avidin beads): immunodectected in the eluted fraction
Muc5ac in eluted fraction of pulldown (Muc5ac): absent from the eluted fraction
Muc5b in eluted fraction of pulldown (Muc5b): absent from the eluted fraction
Muc6 in eluted fraction of pulldown (Muc6): absent from the eluted fraction
B1: biot-MUB70: biotinylated form of MUB70 (maleimide-PEG2-biotin on N-terminal cysteine) (conjugate)
peptide: CVHVQYIDGETDQMLRQDDLDGYTDETIPYSTAEGIKKFEGDGYELFKDNFPAGEKFDNDDTNDQFYTVIF
quaternary structure [4]: exists as trimer
